This note sets out measurements from the supplement of paper PMC7877785.

± gives the uncertainty stated by the source.

The series can be described thus: self-splicing fitness, log relative to wild type (ln ratio); higher = more splicing; Tetrahymena group I intron in knt gene, E. coli kanamycin selection, DiMSum; sequences stand for … in CUCUCU…GGAGGGAAAAGUUAUCAGGCAUGCACCUGGUAGCUAGUCUUUAAACCAAUAGAUUGCAUCGGUUUAAAAGGCAAGACCGUCAAAUUGCGGGAAAGGGGUCAACAGCCGUUCAGUACCAAGUCUCAGGGGAAACUUUGAGAUGGCCUUGCAAAGGGUAUGGUAAUAAGCUGACGGACAUGGUCCUAACCACGCAGCCAAGUCCUAAGUCAACAGAUCUUCUGUUGAUAUGGAUGCAGUUCACAGACUAAAUGUCGGUCGGGGAAGAUGUAUUCUUCUCAUAAGAUAUAGUCGGACCUCUCCUUAAUGGGAGCUAGCGGAUGAAGUGAUGCAACACUGGAGCCGCUGGGAACUAAUUUGUAUGCGAAAGUAUAUUGAUUAGUUUUGGAGUACUCGUGGUCG
An outline of the steps:
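Colonies from six replicate transformations of E. coli BL21(DE3) were pooled and amplicon-sequenced on an Illumina HiSeq 2500. The library placed an intron with all eight P1ex-region nucleotides randomised inside the knt kanamycin-resistance gene on pET-22b(+), and cells grew overnight at 37°C or 30°C on LB agar with or without 25 μg/mL kanamycin (plus 100 μg/mL carbenicillin, 50 μM IPTG, 0.2% rhamnose). Fitness is the DiMSum error-weighted combination of wild-type-normalised replicate fold changes, kanamycin versus none.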

Regarding UAGAAGCAAUAUUACGUUUC, the “self-splicing fitness (ln)” value (30 °C) is -2.28 ± 0.16 and the “self-splicing fitness (ln)” value (37 °C) is -0.293 ± 0.17. As to CACUAGCAAUAUUACGGCGA, the “self-splicing fitness (ln)” value by setting is: (30 °C) -2.43 ± 0.16; (37 °C) -1.61 ± 0.2. Consider GUUAAGCAAUAUUACGAUCC, for which the “self-splicing fitness (ln)” value is -1.62 ± 0.13 (30 °C) and 0.0862 ± 0.16 (37 °C).

Turning to CACCAGCAAUAUUACGUAGC, the “self-splicing fitness (ln)” value (30 °C) was -4.18 ± 0.17 and the “self-splicing fitness (ln)” value (37 °C) is -2.41 ± 0.14. AAAUAGCAAUAUUACGUAAA: the “self-splicing fitness (ln)” value is, setting by setting: (30 °C) -1.61 ± 0.096; (37 °C) -0.713 ± 0.11. As to CUACAGCAAUAUUACGGUUG, the “self-splicing fitness (ln)” value was -1.78 ± 0.078 (30 °C) and -1.73 ± 0.091 (37 °C). For the sequence AGAAAGCAAUAUUACGUUGA, the “self-splicing fitness (ln)” value by setting is: (30 °C) -2.09 ± 0.14; (37 °C) -1.23 ± 0.14. For UUAGAGCAAUAUUACGGUGU the same measures were -2.05 ± 0.35 and -2.19 ± 0.3. For UCCAAGCAAUAUUACGACUU the same measures were -3.57 ± 0.17 and -2.54 ± 0.18. As for CUGAAGCAAUAUUACGAGUU, the “self-splicing fitness (ln)” value by setting is: (30 °C) -4 ± 0.23; (37 °C) -3.47 ± 0.19.

As for CUCCAGCAAUAUUACGACAC, the “self-splicing fitness (ln)” value runs as follows: (30 °C) -2.74 ± 0.33; (37 °C) -1.12 ± 0.34. In the case of UUCAAGCAAUAUUACGCUGA, the “self-splicing fitness (ln)” value runs as follows: (30 °C) -2.5 ± 0.16; (37 °C) -2.33 ± 0.21. For UUCUAGCAAUAUUACGACUA the same measures were -1.83 ± 0.31 and -1.19 ± 0.21. In the case of AAGCAGCAAUAUUACGCGUG, the “self-splicing fitness (ln)” value (30 °C) is -3.76 ± 0.14 and the “self-splicing fitness (ln)” value (37 °C) was -2.25 ± 0.11. CGGUAGCAAUAUUACGGUAU: the “self-splicing fitness (ln)” value (30 °C) is -3.77 ± 0.22 and the “self-splicing fitness (ln)” value (37 °C) was -2.31 ± 0.22. For GCGAAGCAAUAUUACGCACA the same measures were -1.08 ± 0.13 and -0.906 ± 0.14. Regarding CUAUAGCAAUAUUACGGAUA, the “self-splicing fitness (ln)” value (37 °C) is -2.24 ± 0.37.

As for AAAAAGCAAUAUUACGAGUC, the “self-splicing fitness (ln)” value reads like this: (30 °C) -3.46 ± 0.22; (37 °C) -1.28 ± 0.19.

Turning to ACUCAGCAAUAUUACGGGGU, the “self-splicing fitness (ln)” value is -3.84 ± 0.19 (30 °C) and -2.84 ± 0.2 (37 °C).

For the sequence GGGUAGCAAUAUUACGGAAU, the “self-splicing fitness (ln)” value reads like this: (30 °C) -0.368 ± 0.12; (37 °C) -0.661 ± 0.19. Consider AUGGAGCAAUAUUACGUAAC, for which the “self-splicing fitness (ln)” value by setting is: (30 °C) -2.91 ± 0.34; (37 °C) -2.29 ± 0.46. As for CGGUAGCAAUAUUACGCAUG, the “self-splicing fitness (ln)” value was -0.808 ± 0.069 (30 °C) and 0.339 ± 0.08 (37 °C). Consider CCGUAGCAAUAUUACGGGCU, for which the “self-splicing fitness (ln)” value is -2.94 ± 0.16 (30 °C) and -2.27 ± 0.21 (37 °C). Regarding UUGAAGCAAUAUUACGCCGU, the “self-splicing fitness (ln)” value (30 °C) was -1.33 ± 0.15 and the “self-splicing fitness (ln)” value (37 °C) was -0.893 ± 0.18. For CUCCAGCAAUAUUACGGGAU, in that order: -2.92 ± 0.11 and -1.18 ± 0.1. For CACCAGCAAUAUUACGCCAG, in that order: -0.583 ± 0.075 and 0.205 ± 0.097. UCUCAGCAAUAUUACGCGUG: the “self-splicing fitness (ln)” value reads like this: (30 °C) -4.26 ± 0.24; (37 °C) -3.11 ± 0.21. In the case of AAGCAGCAAUAUUACGUAUA, the “self-splicing fitness (ln)” value was -2.85 ± 0.19 (30 °C) and -2.69 ± 0.19 (37 °C).

Regarding CGACAGCAAUAUUACGUCCC, the “self-splicing fitness (ln)” value (30 °C) is -0.895 ± 0.47. On to UACCAGCAAUAUUACGAGAA, for which the “self-splicing fitness (ln)” value (30 °C) was -1.72 ± 0.14 and the “self-splicing fitness (ln)” value (37 °C) was -1.22 ± 0.13.

CCGAAGCAAUAUUACGUCUU: the “self-splicing fitness (ln)” value reads like this: (30 °C) -3.58 ± 0.15; (37 °C) -2.98 ± 0.21. For CCCCAGCAAUAUUACGCGGA, in that order: -3.34 ± 0.15 and -2.07 ± 0.12. Regarding UUUCAGCAAUAUUACGCCCC, the “self-splicing fitness (ln)” value (30 °C) is -1.57 ± 0.3. In the case of CGGAAGCAAUAUUACGCACC, the “self-splicing fitness (ln)” value (30 °C) was -2.4 ± 0.32 and the “self-splicing fitness (ln)” value (37 °C) is -1.19 ± 0.27.

As for CUCGAGCAAUAUUACGCUGC, the “self-splicing fitness (ln)” value (30 °C) is -3.61 ± 0.42. With GAACAGCAAUAUUACGCUCC, the “self-splicing fitness (ln)” value is, setting by setting: (30 °C) -3.43 ± 0.36; (37 °C) -2.34 ± 0.43. Consider ACAGAGCAAUAUUACGCAAC, for which the “self-splicing fitness (ln)” value (37 °C) was -2.1 ± 0.41. With GAACAGCAAUAUUACGAUGC, the “self-splicing fitness (ln)” value was -0.47 ± 0.079 (30 °C) and 0.126 ± 0.12 (37 °C). As for UGUUAGCAAUAUUACGAUAA, the “self-splicing fitness (ln)” value reads like this: (30 °C) -0.767 ± 0.17; (37 °C) -0.345 ± 0.16.
